Test results as given in patent publication US20110086026A1 (ROCHE PALO ALTO, published 2011).

T1: extracellular domain of IL-13Rα1 (R&D Systems, UK) (human, UniProt P78552 22-343)
T1 construct: extracellular domain; Bought; also called recombinant human IL-13Rα1 polypeptide; immobilized extracellular domains of human IL-13Rα1
T1 sequence (looked up): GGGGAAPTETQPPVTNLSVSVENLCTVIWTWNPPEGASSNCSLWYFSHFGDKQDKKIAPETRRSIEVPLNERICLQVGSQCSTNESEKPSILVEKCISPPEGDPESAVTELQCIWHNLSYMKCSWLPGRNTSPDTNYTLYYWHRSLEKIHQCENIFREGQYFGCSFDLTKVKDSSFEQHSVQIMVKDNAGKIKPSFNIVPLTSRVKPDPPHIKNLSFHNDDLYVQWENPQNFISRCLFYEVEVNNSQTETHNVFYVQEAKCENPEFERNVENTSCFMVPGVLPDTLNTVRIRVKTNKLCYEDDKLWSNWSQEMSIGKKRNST

T2: Cynomolgus IL-13Rα1 expressed in transfected Ba/F3 cells (Cynomolgus, UniProt A0A7N9D0M5 20-425)
T2 construct: Stably transfected murine Ba/F3 cells
T2 sequence: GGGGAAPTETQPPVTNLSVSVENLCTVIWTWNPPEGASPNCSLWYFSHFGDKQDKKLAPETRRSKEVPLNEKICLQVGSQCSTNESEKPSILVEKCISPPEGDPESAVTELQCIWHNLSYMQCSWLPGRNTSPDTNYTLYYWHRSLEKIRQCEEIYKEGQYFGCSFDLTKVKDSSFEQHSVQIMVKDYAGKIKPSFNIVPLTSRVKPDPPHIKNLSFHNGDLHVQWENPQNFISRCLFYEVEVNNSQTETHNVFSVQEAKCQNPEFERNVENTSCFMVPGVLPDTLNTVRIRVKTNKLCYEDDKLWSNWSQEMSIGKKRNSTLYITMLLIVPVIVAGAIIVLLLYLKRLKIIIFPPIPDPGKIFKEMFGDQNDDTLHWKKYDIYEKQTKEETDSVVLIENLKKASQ

T3: human IL-13Rα1 (human, UniProt P78552 22-427)
T3 sequence (looked up): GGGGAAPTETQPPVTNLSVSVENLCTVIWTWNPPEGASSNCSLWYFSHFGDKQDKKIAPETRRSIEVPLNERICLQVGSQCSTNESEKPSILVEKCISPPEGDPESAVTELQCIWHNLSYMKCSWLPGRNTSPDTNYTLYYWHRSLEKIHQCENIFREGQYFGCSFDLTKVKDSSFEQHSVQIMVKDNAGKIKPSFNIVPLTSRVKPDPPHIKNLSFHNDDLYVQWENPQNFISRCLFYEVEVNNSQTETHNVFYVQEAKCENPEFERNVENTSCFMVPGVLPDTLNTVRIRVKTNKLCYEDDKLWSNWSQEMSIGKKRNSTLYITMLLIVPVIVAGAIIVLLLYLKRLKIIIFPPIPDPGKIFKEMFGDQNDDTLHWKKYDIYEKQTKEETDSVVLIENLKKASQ

B1: HuMab LC5002-005 (antibody, V domains shown)
VH: EVQVLDSGGGLVQPGGSLRLSCTASGFTFRLYTMSWVRQTPGRGLEWVSGISGSGLSTYFADSVKGRFTISRDNSKNTVYLQMNSLRAEDTAVYYCAKEGDWIYFDSWGQGTLVIVSS
VL: DIQMTQSPSSLSASVGDRVTITCRASQGISSWLAWYQQKPEKAPKSLIYAASSLQSGVPSRFSGSGSGTDFTLTISSLQPEDFATYYCQQYNSHPPTFGQGTKLEIK
notes: Only the variable domains are tied to this antibody; also called hu-MAB<h-IL-13Ralpha>LC.5002-005 (DSM ACC2711)
B2: HuMab LC5002-002 (antibody, human IgG1, V domains shown)
VH: EVQLLESGGGLVQPGGSLRLSCAASGFTFNIYAMNWVRQAPGKGLEWVSVISGRGITTYYADSVKGRFTISRDNSKNTLYLQMNSLRADDTAVYYCAKGSSSWTDFDYWGQGTLVTVSS
VL: DIQMTQSPSSLSASVGDRVTITCRASQGISRWVAWYQQKPEKAPKSLIYAASSLQSGVPSRFSGSGSGTDFTLTISSLQPEDFATYYCQQYNSYPWTFGQGTKVEIK
notes: Human IgG1 kappa from a HuMab mouse hybridoma; Only the variable domains are tied to this antibody; also called hu-MAB<h-IL-13R alpha>LC.5002-002 (DSM ACC2709)
B3: HuMab LC5002-003 (antibody, V domains shown)
VH: EVQLLESGGDLIQPGGSLRLSCAASGFTFNIYAMNWVRQAPGKGLEWVSVISGRGITTYYADSVKGRFTISRDNSKNTLYLQMDSLRAEDTAVYYCAKGSSYWTDFDYWGQGTLVTVSS
VL: DIQMTQSPSSLSASVGDRVTITCRASQGISSWLAWYQQKPEKAPKSLIYAASSLQSGVPSRFSGSGSGTDFTLTISSLQPEDFATYYCQQYNSYPWTFGQGTKVEIK
notes: Human IgG1 kappa from a HuMab mouse hybridoma; Only the variable domains are tied to this antibody; also called LC50002-003; hu-MAB<h-IL-13Ralpha>LC.5002-003 (DSM ACC2710)
B4: HuMab LC5002-007 (antibody, human IgG1, V domains shown)
VH: QVQLVQSGAEVKKPGSSVKVSCKVSGGTFSSYAFSWVRQAPGQGLEWMGRIIPILGRTNYAQKFQGRVTITADKSTSTAYMEVSSLRSEDTAVYYCAREGETLDYFYYGMDVWGQGTTVTVSS
VL: EIVLTQSPGTLSLSPGERATLSCRASQSVSSSYLAWYQQKPGQAPRLLIYGASSRAIGIPDRFSGSGSGTDFTLTISRLEPEDFAVYYCQHYGSSLTFGGGTKVEIK
notes: Human IgG1 kappa from a HuMab mouse hybridoma; Only the variable domains are tied to this antibody; also called hu-MAB<h-IL-13R alpha>LC.5002-007 (DSM ACC2712)

Tests used:
[1] = biological target: T1, extracellular domain of IL-13Rα1 (R&D …); test: ELISA, immobilized extracellular domain of human IL-13Rα1, detection with anti-human kappa-POD, OD 405nm-492nm
Experimental: To determine the ability of the antibodies of the invention to bind to recombinant IL-13Rα1, the extracellular domain of IL-13Rα1 (R&D Systems, UK) was dissolved in PBS (1 μg/ml) and allowed to adsorb to microtiter plates (NUNC Maxisorb) by incubation over night at 4° C. After washing the plates with washing buffer (WB=0.9% NaCl; 0.1% Tween® 20) unspecific binding sites were blocked by addition of 100 μl incubation buffer (IB=PBS with 1% crotein C and 0.1% Tween® 20) and incubation for 30 min at room-temperature (RT). Then, serially diluted HuMab and control antibodies (100 μl/well; dilutions in IB) were added and incubated for 1 hour at RT. The plates were again washed, and bound human antibodies were detected by incubation with peroxidase-conjugated rabbit anti-human kappa (DAKO, Denmark) in a final dilution of 1:500 in IB. Polyclonal goat anti-hIL-13Rα1 antibodies were detected with peroxidase-conjugated polyclonal donkey anti-goat IgG (Santa Cruz; dilution 1:1000 in IB). After incubation for 1 h at RT and a subsequent washing step, the plates were developed with ready-to-use ABTS® solution (Roche Diagnostics GmbH) at RT in the dark. Absorbance was measured at 405 nm after absorbance of the highest concentration reached a sufficient OD.

[2] = biological target: T2, Cynomolgus IL-13Rα1 expressed in …; test: FACS, transfected against parental Ba/F3 cells, 10 µg/ml
Experimental: (§1) The gene coding for IL-13Rα1 was isolated by RT-PCR from Cynomolgus tissue and transfected into in the murine cell line Ba/F3. In order to test whether the HuMabs crossreact with Cynomolgus IL-13Rα1, the stably transfected Ba/F3 cells as well as the parental Ba/F3 cells were incubated with 10 μg/ml of HuMab and control antibodies. As positive control, a polyclonal goat-anti hIL-13Rα1 (R&D Systems) was used. Negative controls included were: a human IgG1 myeloma protein (Nordic) and normal goat serum. Bound antibodies were detected by FACS analysis using an antibody directed against human IgG conjugated with FITC to detect HuMabs and an antibody directed against goat IgG conjugated with FITC to detect goat antibodies. Mean fluorescence intensities (MFI) were compared for the individual antibodies tested on the transfected Ba/F3 line versus the parental line.
(§2) All HuMabs of the invention were able to bind to Cynomolgus IL-13Rα1 expressed in transfected Ba/F3 cells. As expected from the close homology between human and Cynomolgus IL-13Rα1, the polyclonal AF152 antibody also bound to the Cynomolgus IL-13Rα1.

[3] = biological target: T2, Cynomolgus IL-13Rα1 expressed in …; test: FACS on Ba/F3 cells transfected with Cynomolgus IL-13Rα1, 10 µg/ml
Experimental: as §1, §2

human IL-13Rα1 [4] = biological target: T3, human IL-13Rα1; test: cell-based or functional assay
human IL-13Rα1 [5] = biological target: T3, human IL-13Rα1; test: radioligand competition: 125I-IL-13 (0.1 nM) binding to CHO cells expressing human IL-13Rα1 and IL-4Rα
Experimental: ¹²⁵I-IL-13 binding assay was performed using CHO cells expressing human IL-13Rα1 and human IL-4Rα in binding buffer (25 mM HEPES, 150 mM NaCl, 1 mM CaCl₂, 5 mM MgCl₂, and 0.5% bovine serum albumin, adjusted to pH 7.2). 1×10⁵ cells per well were mixed with the antibodies and preincubated for 15 minutes to 1 hour. 0.1 nM ¹²⁵I-IL-13 was added, and the mix was incubated at 4° C. for 4 hours. The concentration of ¹²⁵I-IL-13 used in the assay was determined from saturation binding analysis, competition analysis and determination of input ¹²⁵I-IL-13 to reach equilibrium binding with the cell line. Samples were harvested onto a GF/C filter plate pretreated with 1% PEI/0.5% BSA and counted on Packard TopCount Scintillation counter. Data analysis was performed in PRISM using nonlinear regression curve fit (GraphPad Software, San Diego, Calif.).

Binder | EC50 (read off the curve) [1] | Fold Increase in MFI in the presence of Cyno_IL-13Rα1 [2] | MFI Ba/F3_Cyno_IL-13Rα1 [3] | IC50, IL-13-induced Stat-6 phosphorylation in BSMC (human IL-13Rα1 [4]) | IC50, TF-1 proliferation in response to IL-13 (human IL-13Rα1 [4]) | IC50 (read off the curve) (human IL-13Rα1 [5])
B1 | ~1 nM | 86.7 | 102 MFI | 1.18 nM | 0.39 nM | ~0.1 nM
B2 | ~1 nM | 79.8 | 83.7 MFI | – | 9.21 nM | ~0.1 nM
B3 | 1 to 2 nM | 79 | 82.4 MFI | 5.98 nM | 3.07 nM | ~0.2 nM
B4 | ~0.8 nM | 14.9 | 19 MFI | – | – | –
